The source of these data is publication PMC2185549.

Assay [1] has as its target Sec61 complex of C30-PK-RM (chymotrypsin 30 μg/ml) (canine (endogenous in canine pancreas microsomes)) (UniProt P38377). In words: SEC. In general terms: Size exclusion chromatography separates by hydrodynamic size, large species first.
Assay [2] addresses Sec61 complex of T10-PK-RM (trypsin 10 μg/ml) (canine (endogenous in canine pancreas microsomes)) (UniProt P38377). In words: SEC.
For assay [3], the target named is Sec61 complex of C5-PK-RM (chymotrypsin 5 μg/ml) (canine (endogenous in canine pancreas microsomes)) (UniProt P38377). In words: SEC.
Assay [4] concerns the target Sec61 complex of C1-PK-RM (chymotrypsin 1 μg/ml) (canine (endogenous in canine pancreas microsomes)) (UniProt P38377). In words: radioligand binding.
Assay [5] has as its target Sec61 complex of T3-PK-RM (trypsin 3 μg/ml) (canine (endogenous in canine pancreas microsomes)) (UniProt P38377). In words: radioligand binding.
Assay [6] deals with Sec61 complex of C5-PK-RM (chymotrypsin 5 μg/ml) (canine (endogenous in canine pancreas microsomes)) (UniProt P38377). In words: radioligand binding.
Assay [7] concerns the target Sec61 complex of C30-PK-RM (chymotrypsin 30 μg/ml) (canine (endogenous in canine pancreas microsomes)) (UniProt P38377). In words: radioligand binding.
The target of assay [8] is Sec61 complex of Th50-PK-RM (thermolysin 50 μg/ml, on ice) (canine (endogenous in canine pancreas microsomes)) (UniProt P38377). In words: radioligand binding.

Regarding “ribosome-nascent chain complex bearing ffLuc77”, the fold reduction of RNC binding relative to intact microsomes in assay [1] amounted to 3.5 fold.
With “ribosome-nascent chain complex bearing pPL86 (from UniProt P01239 1-86)”, the fold less RNCs bound than undigested PK-RM in assay [2] stood at 5 fold. In assay [3], the fold decrease in RNC binding against undigested PK-RM was determined as 2 fold. In assay [1], the fold less RNCs bound than undigested PK-RM amounted to 2.7 fold and the percent of the bound RNCs insensitive to high salt extraction was found to be 80%.
Take “canine ribosomes (nontranslating 80S ribosomes) (complex)”: the fold lower affinity than the sites of undigested PK-RM in assay [4], in assay [6] and in assay [7] was less than 2 fold each time. Besides, the percent of the high affinity ribosome binding sites of intact PK-RM in assay [5] turned out to be 5%. The substance further displayed a fold reduction of ribosome binding against undigested PK-RM in assay [6] of 3 fold. In assay [7], this substance showed a fold defect in ribosome binding against undigested PK-RM greater than 10 fold. This substance also came in with a fold fewer ribosome binding sites than Th2-PK-RM in assay [8] of 3 fold.
